Literature values in paper PMC7232523.

Assays:
IL-4Ra (Homo sapiens) = IL-4Ra (Homo sapiens) (UniProt P24394)
[1] = target: IL-13Ra1/IL-4Ra (Homo sapiens) (UniProt P78552)
Sequence of UniProt P78552 (P78552 22-343, chain 1 of 2): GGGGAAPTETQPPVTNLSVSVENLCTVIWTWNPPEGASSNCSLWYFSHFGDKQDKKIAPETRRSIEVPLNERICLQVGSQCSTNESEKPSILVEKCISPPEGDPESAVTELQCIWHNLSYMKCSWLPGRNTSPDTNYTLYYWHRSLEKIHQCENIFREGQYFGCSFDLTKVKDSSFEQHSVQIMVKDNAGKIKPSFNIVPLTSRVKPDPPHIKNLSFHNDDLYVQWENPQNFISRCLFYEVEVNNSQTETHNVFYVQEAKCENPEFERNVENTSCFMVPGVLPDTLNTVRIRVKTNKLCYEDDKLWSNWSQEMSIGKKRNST
Sequence of UniProt P78552 (P24394 26-232, chain 2 of 2, further chain): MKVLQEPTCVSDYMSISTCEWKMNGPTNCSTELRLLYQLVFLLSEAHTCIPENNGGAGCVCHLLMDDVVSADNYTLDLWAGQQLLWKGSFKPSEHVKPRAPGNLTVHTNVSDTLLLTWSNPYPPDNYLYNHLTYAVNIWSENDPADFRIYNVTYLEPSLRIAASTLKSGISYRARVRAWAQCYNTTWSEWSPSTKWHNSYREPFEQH

Sequence of UniProt P24394 (P24394 26-232): as the sequence (P24394 26-232, chain 2 of 2, further chain) above

| Kd (IL-4Ra (Homo sapiens)) [nM] | Kd [1] [nM] | Substance |
| --- | --- | --- |
| 0.1 |  | IL-4 (from UniProt P05112) |
|  | 0.035 | IL-13 (from UniProt P35225) |
